# From publication PMC12272874
# Target: N-terminal FMN-binding domain of human methionine synthase reductase (ΔCMTRR, residues 1 to 231) (UniProt Q9UBK8)
# Test: stopped-flow absorption spectroscopy; MTR•cob(II)alamin (40 μM) rapidly mixed with ΔCMTRRhq (70 μM) in Buffer D (100 mM potassium phosphate, pH 7.4), anaerobic, 24 °C; increase in absorbance at 464 nm (loss of His-785 coordination) over 60 s, double exponential fit
# Conditions: other: stopped-flow absorption spectroscopy
# Chain of N-terminal FMN-binding domain of human methionine synthase reductase (ΔCMTRR, residues 1 to 231) (Q9UBK8 1-231, stated change not applied): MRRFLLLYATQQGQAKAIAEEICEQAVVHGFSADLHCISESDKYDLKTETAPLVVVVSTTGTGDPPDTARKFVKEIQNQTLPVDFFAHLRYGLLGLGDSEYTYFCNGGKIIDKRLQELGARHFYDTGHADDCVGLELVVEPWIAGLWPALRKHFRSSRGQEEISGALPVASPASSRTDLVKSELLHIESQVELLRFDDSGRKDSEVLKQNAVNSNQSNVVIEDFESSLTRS
# Chain of P1173L variant of human methionine synthase (MTR), full-length recombinant (chain, as listed by the source P1173L): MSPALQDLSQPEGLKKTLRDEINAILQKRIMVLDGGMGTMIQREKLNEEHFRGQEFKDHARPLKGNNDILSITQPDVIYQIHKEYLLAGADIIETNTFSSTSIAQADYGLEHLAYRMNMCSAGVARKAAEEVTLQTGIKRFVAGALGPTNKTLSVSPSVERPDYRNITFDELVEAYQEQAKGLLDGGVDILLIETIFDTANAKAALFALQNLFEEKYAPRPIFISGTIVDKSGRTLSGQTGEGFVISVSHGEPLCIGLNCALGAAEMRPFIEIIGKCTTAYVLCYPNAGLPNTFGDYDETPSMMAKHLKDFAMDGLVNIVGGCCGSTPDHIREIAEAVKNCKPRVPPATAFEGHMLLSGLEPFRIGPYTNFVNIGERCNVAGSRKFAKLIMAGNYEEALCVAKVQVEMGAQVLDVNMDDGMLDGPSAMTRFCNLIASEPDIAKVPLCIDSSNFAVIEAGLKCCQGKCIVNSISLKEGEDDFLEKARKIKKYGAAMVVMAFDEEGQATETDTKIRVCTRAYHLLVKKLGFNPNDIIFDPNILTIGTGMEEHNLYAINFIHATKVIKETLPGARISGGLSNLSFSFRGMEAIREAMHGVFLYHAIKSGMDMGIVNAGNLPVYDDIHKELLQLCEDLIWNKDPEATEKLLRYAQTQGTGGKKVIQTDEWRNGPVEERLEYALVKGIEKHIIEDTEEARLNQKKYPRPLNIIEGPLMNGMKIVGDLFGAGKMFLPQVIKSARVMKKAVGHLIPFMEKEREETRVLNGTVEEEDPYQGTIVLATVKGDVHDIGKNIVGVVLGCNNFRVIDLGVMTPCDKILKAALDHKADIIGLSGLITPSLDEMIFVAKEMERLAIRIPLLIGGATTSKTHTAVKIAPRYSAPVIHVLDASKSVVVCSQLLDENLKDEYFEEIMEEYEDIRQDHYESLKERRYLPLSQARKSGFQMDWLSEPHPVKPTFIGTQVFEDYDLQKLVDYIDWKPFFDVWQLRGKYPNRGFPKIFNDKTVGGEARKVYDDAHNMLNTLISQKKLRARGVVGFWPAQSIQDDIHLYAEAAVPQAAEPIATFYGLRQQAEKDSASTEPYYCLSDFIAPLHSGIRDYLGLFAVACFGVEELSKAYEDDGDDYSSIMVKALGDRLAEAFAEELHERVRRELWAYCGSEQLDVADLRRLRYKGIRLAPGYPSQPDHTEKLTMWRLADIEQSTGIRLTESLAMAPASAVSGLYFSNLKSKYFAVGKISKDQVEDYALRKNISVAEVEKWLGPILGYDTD
# Chain of Human methionine synthase (MTR), wild-type, full-length recombinant (chain, as listed by the source): as the sequence (chain, as listed by the source P1173L) above, with L1173P counted along it
row,Substance,observed rate constant for complex formation (kobs)
1,"P1173L variant of human methionine synthase (MTR), full-length recombinant",the observed rate constant for complex formation was 0.1 ± 0.01 s^−1
2,"Human methionine synthase (MTR), wild-type, full-length recombinant",the observed rate constant for complex formation was 0.1 ± 0.01 s^−1
